T1: human GIP receptor (human) (UniProt P48546)
T1 sequence (looked up): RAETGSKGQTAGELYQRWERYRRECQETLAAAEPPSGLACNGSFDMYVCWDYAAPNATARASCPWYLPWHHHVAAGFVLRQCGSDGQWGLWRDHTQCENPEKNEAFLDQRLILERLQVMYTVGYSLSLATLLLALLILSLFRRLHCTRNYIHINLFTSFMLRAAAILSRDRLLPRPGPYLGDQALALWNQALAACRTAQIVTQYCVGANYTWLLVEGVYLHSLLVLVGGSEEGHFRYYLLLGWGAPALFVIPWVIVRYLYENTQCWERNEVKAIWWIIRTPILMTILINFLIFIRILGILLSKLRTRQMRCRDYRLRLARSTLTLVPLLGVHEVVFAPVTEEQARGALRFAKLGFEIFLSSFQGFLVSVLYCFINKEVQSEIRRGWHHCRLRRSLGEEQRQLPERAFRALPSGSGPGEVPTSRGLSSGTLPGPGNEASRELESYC

T2: mouse GIP receptor (mouse) (UniProt Q0P543)
T2 sequence (looked up): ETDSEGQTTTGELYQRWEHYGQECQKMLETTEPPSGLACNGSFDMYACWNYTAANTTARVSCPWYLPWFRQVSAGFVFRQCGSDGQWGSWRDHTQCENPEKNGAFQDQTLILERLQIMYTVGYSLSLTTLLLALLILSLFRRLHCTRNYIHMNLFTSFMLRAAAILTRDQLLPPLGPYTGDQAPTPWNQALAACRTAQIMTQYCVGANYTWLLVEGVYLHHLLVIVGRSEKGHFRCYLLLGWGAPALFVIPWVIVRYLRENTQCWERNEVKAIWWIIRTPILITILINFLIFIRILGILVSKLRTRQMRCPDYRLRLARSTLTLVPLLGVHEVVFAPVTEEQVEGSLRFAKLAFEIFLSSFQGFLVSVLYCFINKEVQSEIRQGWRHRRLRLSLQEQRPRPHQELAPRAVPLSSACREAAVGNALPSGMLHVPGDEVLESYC

T3: rat GIP receptor (rat) (UniProt P43219)
T3 sequence (looked up): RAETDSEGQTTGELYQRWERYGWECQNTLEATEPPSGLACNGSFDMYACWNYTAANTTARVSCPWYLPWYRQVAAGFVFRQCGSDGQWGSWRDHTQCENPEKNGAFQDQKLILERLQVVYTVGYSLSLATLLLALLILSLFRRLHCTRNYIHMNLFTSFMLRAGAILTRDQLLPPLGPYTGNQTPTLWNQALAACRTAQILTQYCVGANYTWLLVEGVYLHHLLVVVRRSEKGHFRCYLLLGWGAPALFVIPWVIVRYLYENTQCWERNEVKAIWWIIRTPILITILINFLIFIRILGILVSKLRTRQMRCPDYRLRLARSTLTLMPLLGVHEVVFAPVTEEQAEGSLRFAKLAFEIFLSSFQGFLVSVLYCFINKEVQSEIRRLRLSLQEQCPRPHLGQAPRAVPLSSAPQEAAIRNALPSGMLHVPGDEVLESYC


Tests used:
Test in all cases: cell-based or functional assay
[1] = molecular target: T1, human GIP receptor (human)
[2] = molecular target: human GLP-1 receptor (human) (UniProt P43220)
[3] = molecular target: human glucagon receptor (human) (UniProt P47871)
[4] = molecular target: T2, mouse GIP receptor (mouse)
[5] = molecular target: mouse GLP-1 receptor (mouse) (UniProt O35659)
rat GIP receptor (rat) = molecular target: T3, rat GIP receptor (rat)
rat GLP-1 receptor (rat) = rat GLP-1 receptor (rat) (UniProt P32301)
rat GLP-1 receptor (rat), sequence (P32301 22-463): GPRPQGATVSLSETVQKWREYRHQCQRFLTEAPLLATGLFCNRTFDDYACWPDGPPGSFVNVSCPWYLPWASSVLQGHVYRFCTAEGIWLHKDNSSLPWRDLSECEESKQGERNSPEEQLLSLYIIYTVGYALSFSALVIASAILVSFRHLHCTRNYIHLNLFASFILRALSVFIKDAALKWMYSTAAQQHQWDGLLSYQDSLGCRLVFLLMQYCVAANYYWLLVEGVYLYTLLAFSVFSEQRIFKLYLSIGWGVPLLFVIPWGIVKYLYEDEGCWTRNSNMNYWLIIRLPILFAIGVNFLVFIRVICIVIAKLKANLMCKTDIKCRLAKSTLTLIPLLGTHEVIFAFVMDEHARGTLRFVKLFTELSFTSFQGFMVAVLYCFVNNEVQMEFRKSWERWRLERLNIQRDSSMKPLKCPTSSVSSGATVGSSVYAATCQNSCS

human GLP-1 receptor (human), sequence (P43220 24-463): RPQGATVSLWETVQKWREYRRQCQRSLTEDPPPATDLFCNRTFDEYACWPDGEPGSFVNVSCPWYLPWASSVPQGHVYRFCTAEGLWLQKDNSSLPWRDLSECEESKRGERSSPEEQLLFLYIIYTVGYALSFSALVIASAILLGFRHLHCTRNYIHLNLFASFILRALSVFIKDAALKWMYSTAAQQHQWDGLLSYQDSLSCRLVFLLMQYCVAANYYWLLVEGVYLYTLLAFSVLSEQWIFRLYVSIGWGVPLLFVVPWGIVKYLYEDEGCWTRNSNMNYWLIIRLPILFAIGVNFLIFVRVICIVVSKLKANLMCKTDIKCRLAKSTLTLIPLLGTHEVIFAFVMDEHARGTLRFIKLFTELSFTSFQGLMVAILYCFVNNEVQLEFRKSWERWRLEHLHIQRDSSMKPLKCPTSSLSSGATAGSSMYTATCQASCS
human glucagon receptor (human), sequence (P47871 26-477): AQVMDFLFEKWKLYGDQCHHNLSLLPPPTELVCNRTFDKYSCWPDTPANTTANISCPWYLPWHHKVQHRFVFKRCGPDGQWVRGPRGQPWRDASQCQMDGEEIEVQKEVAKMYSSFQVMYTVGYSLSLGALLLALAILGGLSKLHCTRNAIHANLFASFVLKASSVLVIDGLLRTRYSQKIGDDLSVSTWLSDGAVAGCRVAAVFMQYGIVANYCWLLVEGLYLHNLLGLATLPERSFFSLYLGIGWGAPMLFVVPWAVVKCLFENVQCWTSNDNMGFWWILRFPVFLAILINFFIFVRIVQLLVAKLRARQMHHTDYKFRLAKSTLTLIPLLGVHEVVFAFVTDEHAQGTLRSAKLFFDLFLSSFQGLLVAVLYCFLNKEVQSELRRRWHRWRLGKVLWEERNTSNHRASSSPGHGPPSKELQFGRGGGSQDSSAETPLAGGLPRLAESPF
mouse GLP-1 receptor (mouse), sequence (O35659 22-463): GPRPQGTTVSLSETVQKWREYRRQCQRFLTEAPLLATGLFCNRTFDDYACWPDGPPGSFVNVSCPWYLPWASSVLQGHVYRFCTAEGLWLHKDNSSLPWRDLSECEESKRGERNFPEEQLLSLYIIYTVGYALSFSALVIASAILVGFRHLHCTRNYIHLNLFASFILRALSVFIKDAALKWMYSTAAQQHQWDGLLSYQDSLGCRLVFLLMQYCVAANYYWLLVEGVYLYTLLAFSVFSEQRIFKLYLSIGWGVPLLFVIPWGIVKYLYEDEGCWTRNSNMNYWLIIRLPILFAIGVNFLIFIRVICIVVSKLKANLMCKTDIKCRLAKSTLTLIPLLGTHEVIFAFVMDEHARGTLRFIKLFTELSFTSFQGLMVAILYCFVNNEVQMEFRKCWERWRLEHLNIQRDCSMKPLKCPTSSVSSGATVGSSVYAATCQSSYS

| Binder | cAMP EC50 [1] [nM] | cAMP EC50 [2] [nM] | cAMP EC50 [3] [nM] | cAMP EC50 [4] [nM] | cAMP EC50 [5] [nM] | cAMP EC50 (rat GIP receptor (rat)) [nM] | cAMP EC50 (rat GLP-1 receptor (rat)) [nM] | cAMP EC50, Batch 2 [2] [nM] | cAMP EC50, Batch 2 [3] [nM] | cAMP EC50, Batch 2 [4] [nM] | cAMP EC50, Batch 2 [5] [nM] | cAMP EC50, Batch 2 (rat GIP receptor (rat)) [nM] | cAMP EC50, Batch 2 (rat GLP-1 receptor (rat)) [nM] |
| --- | --- | --- | --- | --- | --- | --- | --- | --- | --- | --- | --- | --- | --- |
| IP305 (Fc fusion) YSEGTFISDYSIALAAAAVRDFVNWLLAGGGGGGGSGGGGSGGGGSGGGGSATHTCPPC | 0.26 | 230 | 1100 | 3.2 | > 1130 | 1.7 | 47 |  |  |  |  |  |  |
| IP302 (Fc fusion) YSEGTFISDYSIALAAAAQQDFVNWLLAGGGGGGGSGGGGSGGGGSGGGGSATHTCPPC | 0.018 | 26 | 1200 | 0.083 | 93 | 0.055 | 7 |  |  |  |  |  |  |
| IP314 (Fc fusion) YSEGTFISDYSKLLAAAAVRDFVNWLLAGGGGGGGSGGGGSGGGGSGGGGSATHTCPPC | 0.23 | > 906 | 740 | 15 | > 906 | 0.88 | 450 |  |  |  |  |  |  |
| IP308 (Fc fusion) YSEGTFISDYSIALAAAAAKDFVNWLLAGGGGGGGSGGGGSGGGGSGGGGSATHTCPPC | 0.025 | 1300 | 1500 | 0.17 | > 1520 | 0.09 | 700 |  |  |  |  |  |  |
| IP311 (Fc fusion) YSEGTFISDYSIALAAAAIDDFVNWLLAGGGGGGGSGGGGSGGGGSGGGGSATHTCPPC | 0.074 | 670 | > 2420 | 0.95 | 1500 | 0.43 | 61 |  |  |  |  |  |  |
| IP332 (Fc fusion) YSEGTFTSDYSIALAAAAQQDFVNWLLAGGGGGGGSGGGGSGGGGSGGGGSGGGGSGGGGSA | 0.026 | 98 | > 1250 | 0.21 | 750 | 0.044 | 50 |  |  |  |  |  |  |

The remaining lines, values ahead:

| cAMP EC50 [1] [nM] | cAMP EC50 [2] [nM] | cAMP EC50 [3] [nM] | cAMP EC50 [4] [nM] | cAMP EC50 [5] [nM] | cAMP EC50 (rat GIP receptor (rat)) [nM] | cAMP EC50 (rat GLP-1 receptor (rat)) [nM] | cAMP EC50, Batch 2 [2] [nM] | cAMP EC50, Batch 2 [3] [nM] | cAMP EC50, Batch 2 [4] [nM] | cAMP EC50, Batch 2 [5] [nM] | cAMP EC50, Batch 2 (rat GIP receptor (rat)) [nM] | cAMP EC50, Batch 2 (rat GLP-1 receptor (rat)) [nM] | Binder |
| --- | --- | --- | --- | --- | --- | --- | --- | --- | --- | --- | --- | --- | --- |
| 0.0095 | 0.54 | > 17600 | 10 | 10 | 0.06 | 0.23 |  |  |  |  |  |  | IP394 (Fc fusion) YSEGMHTSDLSKLLERQAIDEFIAWLLKGGAAAGGSGSTASSGSGSATGGGGAATHTCPPC |
| 0.0093 | 0.11 | 330 | 0.28 | 1.2 | 0.19 | 0.057 | 0.11 | 250 | 0.78 | 2.5 | 0.014 | 0.01 | IP396 (Fc fusion) YSEGTFTSDYSKLLERQAIDEFIAWLLKGGGGGGGSGGGGSGGGGSGGGGSACPPC |
| 0.0086 | > 1080 | > 1080 | 0.019 | > 1080 | 0.015 | 430 |  |  |  |  |  |  | IP333 (Fc fusion) YSEGTFISDYSIALAAAAQQDFVNWLLKGGGGGGGSGGGGSGGGGSGGGGSGGGGSGGGGSA |
| 0.029 | 130 | > 455 | 0.3 | > 455 | 0.056 | 120 |  |  |  |  |  |  | IP334 (Fc fusion) YSEGTFTSDYSIALAAAAQQDFVNWLLKGGGGGGGSGGGGSGGGGSGGGGSGGGGSGGGGSA |

Reference: US20160185837A1, “GIP AND GLP-1 RECEPTOR DUAL-AGONISTS FOR THE TREATMENT OF DIABETES” (Medimmune Limited, priority 2013, published 2016)
